The DeepSol protein solubility set

experiment: soluble on expression in E. coli; label from the status in PepcDB or PDB records

Row | Sequence | soluble on expression in E. coli
1 | MGSDKIHHHHHHMKVKWSRDFSIKNMQLDKQHELIFEITNLANDLALNIQDNNTQHKNDLKQILVKLFQYIKIHFKDEEKFMESIDFPLIEEHKKSHQILVEKTKELLEHSNDIVKMSQELSILTKDWILDHFANEDLWIANFTKKTLHLQEIHYTLEQYIKLKSIKQDLRAEKTYDYICNCSLRIHAVPQTIHQELVSKENTLKCEKCGQILVHLDYFDLNQNFEKFNAIFEDALQNHHFTTQENDMRGGG | not soluble
2 | MASGKATSLYSHAEIFLPSKQESGIKKKSGEETQQTKGATIESSRINQNRAERTQRFQTQCSKRKPYEIRQGIPERSSSKQDPGNKTASIEHRGRENPSETHES | not soluble
3 | TLAVAAGTGAYLIDKRQKQKAKEPALPAKAEDGSEPISQRELSWDDVQPVDIIGLEVGYRLIPLVDRDQGGELLERVKGVRKKLSQDFGFLIPAVHIRDNLELTPNSYRITLMGVAVGEAEIRPDQELAINPGQVYGMIDGEPTMDPAFGLEAVWIREEQREHAQALGYTVVDSSTVLATHLSQLLTNNASQLIGHEEVQNLLEMLGRSAPKLVENFVPDQLQLGVVVKVLQNLLNEAIPIRDIRTIVQTLAEYSSKSQEPDILTAAVRISLKRLIVQEINGIEPELPVITLIPELEQILHQTMQASGGESAGIEPGLAERLQSSLSHATQEQELKGEPAVLLTSGVLRSTLAKFVKNTIPNLRVLSYQEIPDEKQIRIVQAVGN | not soluble
4 | GIDIDLQMLGERLLKNKIGSIVAIEPETGEILCMVSSPDFDPRLMIGRQRGKNHLMLQRDPMKPLLNRSIMGVYPPGSTFKTAQALTFLQEGIIQTNTPAFPCAHGFNYGSLHVGCHAHGSPLPLIPAIATSCNSYFCWGLFRMFGDRKYGSSQNAITVWKDHMVSQGFGYKLGVDLPGEKRGLIPNAQFYDKAYRGRWNGLTVISIAIGQGEILATPLQIANLGATIANRGHFITPHIVKEIQDEQLDSLYRVPRKTSIDRKHYEDVVTGMRAAVTGGTCRVAGAILPDVEVCGKTGTAQNRGHDHSVFMGFAPMNNPKIAIAVYVENGGFGAVYGVPIGALMMEQYLKGKLSPEN | not soluble
5 | GPGSMESSMSTGDLLTPGALWQDDTKVFVCSGRRCGRRFNRLFCPKHRCRWCGRVYCDACAPKQTVYKRQLLRKCNRCRLPVVFRYSWNERTRAMDCTPFECIISYLTPRSITALLQSCYTMMSEFPVCGYPFYDSIQQRFPSFYPGAQIGRGTFGTVFKCEDRSAADHKRAILKCISKATNLTYTRWMGALTELRILESVNHPNVAHLLGAFQTREDLVIVMEAGEGGTARRAAAGVREYGQAAEEAFTANIIEGVAAGLNYLYREKHIIHRDIKLDNIVLSADYSTPMIIDFGLAEFVVNEEEQWYVVGGTRNYAAPESIAAVANGHVDMKEPGITMHKGDLFSLGVVAYYLLSGHRPFRSRSFDKMHEEMRRGVACTGPLWDGVSSDARELVQALLSYDPAQRPDYAAIKENPFITARTAGVKSIQMQRNARLLLDEEETHAEWVTLEPSDLREAADEGESEVLLPLSTPQRWYHAYLPRFSLLHL | not soluble
6 | MLKLGHCGVEKQEVQKRIGLRVIELREHKGWSQSDLARACNKDRQAIEKIESGKVNPTIFSLYEIAIALGVSLSKVTGI | not soluble
7 | MGSDKIHHHHHHMESIKQIYRMGHGPSSSHTMGPMRAAQMFLERNRGAVRFNVTLYGSLAATGKGHMTDAAILEVLQPVAKTNITWEPKTFLPFHPNGMLFESYNESGEELDTWTVYSIGGGTLANESFNELRTEQVYDMHTIKEIQAWCEKTGHSYWEYVEQHEGPSIWDYLAEVWEVMQDAVRRGLEAEGILPGGLGIRRKASDYMIRAKGYGSSIKSRGMVYAYALAVSEENACGGKIVTAPTCGSCGVMPAVLYHLKETREFRDSRILRALATAGLFGNVVRTNASVSGAEVGCQGEVGVACAMAAAAASQLFGGTPAQIEYAAEMGLEHHLGLTCDPVCGLVQIPCIERNAFAAARALDANTFSNFSDGKHRVSFDQVVEVMRQTGNDLPSLYKETSEGGLAKNMENSNN | not soluble
8 | MSLKALARFGKAFGGYKMIHVPQPICGPEDVVTEIKAAAICGADMKHYNVDSGSDEFNSIRGHEFAGCIAQVGEKVKDWKVGQRVVSDNSGHVCGVCPACEQGDFLCCTEKVNLGLDNNTWGGGFSKYCLVPGEILKIHRHALWEIPDGVDYEDAAVLDPICNAYKSIAQQSKFLPGQDVVVIGTGPLGLFSVQMARIMGAVNIVVVGLQEDVAVRFPVAKELGATAVVNGSTEDVVARCQQICGKDNLGLVIECSGANIALKQAIEMLRPNGEVVRVGMGFKPLDFSINDITAWNKSIIGHMAYDSTSWRNAIRLLASGAIKVKPMITHRIGLSQWREGFDAMVDKTAIKVIMTYDFDEGHHHHHH | not soluble
9 | MRHFDASQPLRVAVLGTGFGSKVHIPALQHHSETTVQAVYHRQPDRAAAIAVQFGIPNAYSDLDQLLADPAIEAVTIASPPFLHYPMAWAALSAGKSVLLEKPTTLNVEEARALWKLASSQGLTVTLDFEYRFVPAWQYVAELLAEGVIGQPWLVKLDWLMSSRADASRPWNWYALRSQGGGALGALGSHSFDYLAWLFGPARRLQARLFTAIQERPDATTGELKPVDSDDTDLIQLELAEGVPCQISLSSVFRQGRGHWLEVYGDRGTLILGSSNQKDYVHGFQVWFASAGQALQELTVPQRLAFRQEFADGRLAPFLRVVDHWLADLRHGQMTAPSLKEGLYSQLLIDLCWQSQRSGEWQTVPELNRFLLEHHHHHH | not soluble
10 | MGSDKIHHHHHHEILKVLRKNNDFQNWEEIKNRLHPIIIKHVEGEPVYQFFDTLNDNSFEKNGQLISLSTQPINSFVPYHIHNYVEMMVVLSGSCVIKTANEAITLNENEIIIIGCKTIHKVEPIDDKTIMIKIALKRAAFSLEDLVFLTHSHNAQSVSSIVFSLLSSDDSHGAFNVFRTHHDVHVVNKIYNIISEYYCPDDYSNQIIKLEILELFIRLIRIASKDAVFQTQKEVQNNNEIDLLTLLLYIERNYKTINLKSMAKYFNFNPNYLSSILREKTGYTFIKLVHLQRINVAAEYLALTNTPVEGISLAVGYENPSYFYKMFKKYMGCSPKEYRQKQIAG | not soluble
11 | MASTGVERRKPLENKVALVTASTDGIGLAIARRLAQDGAHVVVSSRKQENVDRTVATLQGEGLSVTGTVCHVGKAEDRERLVAMAVNLHGGVDILVSNAAVNPFFGNIIDATEEVWDKILHVNVKATVLMTKAVVPEMEKRGGGSVLIVSSVGAYHPFPNLGPYNVSKTALLGLTKNLAVELAPRNIRVNCLAPGLIKTNFSQVLWMDKARKEYMKESLRIRRLGNPEDCAGIVSFLCSEDASYITGETVVVGGGTASRL | soluble
12 | MIEYAALKFNVVSDPMSETAKKVIVGMSGGVDSSVSAWLLQQQGYQVEGLFMKNWEEDDGEEYCTAAADLADAQAVCDKLGIELHTVNFAAEYWDNVFELFLAEYKAGRTPNPDILCNKEIKFKAFLEFAAEDLGADYIATGHYVRRADVDGKSRLLRGLDSNKDQSYFLYTLSHEQIAQSLFPVGELEKPQVRKIAEDLGLVTAKKKDSTGICFIGERKFREFLGRYLPAQPGKIITVDGDEIGEHQGLMYHTLGQRKGLGIGGTKEGTEEPWYVVDKDVENNILVVAQGHEHPRLMSVGLIAQQLHWVDREPFTGTMRCTVKTRYRQTDIPCTVKALDDDRIKVIFDEPVAAVTPGQSAVFYNGEVCLGGGIIEQRLPLPVLEHHHHHH | soluble
13 | MTEQERLELEAAAFRRLVAHLDSRKDVQNIDLMNLSGFCRNCLSKWYKAAADEKHIDITLDDAREVVYGMPYSEWKANYQKEASAEQQAAFVKESKHD | soluble
14 | MSESITITANSIDNPETDVRRNERFHLVPRKRLEALVTTSGLIGAMIGFYDGVKISSLRYLTENAHRMPKTVGGWYFYHKKKNYVMIVAGVKKAITTSFKYGAAVGGFFGLEYLLDISRGNTIDFFNTTTAAFLTSTFYAKYNKLSSMQTRKMIFKGTALGLTLGLIQDYLIHARKGRVWYLDRYTQQKLV | not soluble
15 | MNKLYIGNLSENAAPSDLESIFKDAKIPVSGPFLVKTGYAFVDCPDESWALKAIEALSGKIELHGKPIEVEHSVPKRQRIRKLQIRNIPPHLQWEVLDSLLVQYGVVESCEQVNTDSETAVVNVTYSSKDQARQALDKLNGFQLENFTLKVAYIPDEMAAQQNPLQQPRGRRGLGQRGSSRQGSPGSVSKQKPCDLPLRLLVPTQFVGAIIGKEGATIRNITKQTQSKIDVHRKENAGAAEKSITILSTPEGTSAACKSILEIMHKEAQDIKFTEEIPLKILAHNNFVGRLIGKEGRNLKKIEQDTDTKITISPLQELTLYNPERTITVKGNVETCAKAEEEIMKKIRESYENDIASMNLQAHLIPGLNLNALGLFPPTSGMPPPTSGPPSAMTPPYPQFEQSETETVHLFIPALSVGAIIGKQGQHIKQLSRFAGASIKIAPAEAPDAKVRMVIITGPPEAQFKAQGRIYGKIKEENFVSPKEEVKLEAHIRVPSFAAGRVIGKGGKTVNELQNLSSAEVVVPRDQTPDENDQVVVKITGHFYACQVAQRKIQEILTQVKQHQQQKALQSGPPQSRRK | soluble
16 | MSLSGETELTFWTFSGLHEQFYVEMVKEWNKKYPDRKIKLNTVVYPYGQMHDNLSISLIAGEGVPDIADVELARFSNFLKGSDIPLADLTPLIEKDRDKFVEARLTLYSKNGKLYGLDTHVGTTVMFYNMDVMKKAGVNPDDIKTWDDYHKAGQKVRKVTGKPMGTVETNDSATFLSMISQQNSGYFDKNGKLILNNDTNVKTLQYLKDMINDKTMIPAPGGGHHSEEYYGFMNQGGAASVLMPIWYMGRFIDYMPDLKGKIAIRPLPAWKEGGDRSAGLGGTATVVPKQSKHVELAKEFLAFAKGSEEGNKKLWSVLGFDPLRWDVWSSKELKEKNKYTDYFQNGTGIFSVLLDIKDEINPIYLHEDFAKASDLVNRSVLFDALKSQQKTPKQALDRAAGELKQKEGHHHHHH | soluble
17 | MGSDKIHHHHHHKFIIFTYKDSYINQSATFHSDRTNLNIKREKCDFSFFNISIGHKLSLSLQNLIINPFNYMAFTNNIMIVRHRLLTELVKLWKNGELTTDKIDRLPLELSPRRSKHAGRCCVHKERAVWKYKSLPLLGLDMDDETDELTPLSEYAARSIERANNGKPKDNIMCVIDEACSACVQINYEITDLCRGCTARSCQYNCPKGAVHVHADTGKAWIDHDTCISCGICHKSCPYHAIVYIPVPCEESCPVKAISKDEHGIEHIDENKCIYCGKCMNACPFGAIFEISQTFDVLQRIRKGEQVVAIVAPSILGQFSTTIEQVYGAFRQIGFTDIIEVAQGAMSTVEHEAHELIEKLEEGQKFMTTSCCPSYIELVNKYIPDMKKYVSGTGSPMYYAARIAKEKYPDAKIVFVGPCVAKRKEAQRDEAVDFVMTFEEISSIFDAFEINLEIVQPYAMEFSSVREAHGFAQAGGVMGAVKAFLKMEADKINAIQVSDLNKKNIGTLRAYAKSGKAPGQFIEVMACEGGCITGPSTHSGSNNGKRQLVQELAKQKKTY | not soluble
18 | MAHHHHHHMAKEYPILVVPCKRGGIPCLTPDQARAILNEEERVISVSIFDASEFVDPCKKANQGFAEFCGLGEFRTILTVRSPHIGMHASAPATDAGLCANHEKGRISLGMDKWKEMVLPLRPEIAIPPYDSVSINEPQKKRRRTAMTRSAKWATSADSLQGNGNCKLMKPLCAAENNGEFVFLEELCQNETLQQYTYHVKEAINKGQVMSTAISLPSLLICLKYNVCFIESAIPWILAEKGIGLVFDFNPVSGVSPARYETQIDLNDDCFTKDIRPLSPDCNCYTCKRHMRAYIHHLLTVQEMNSKTLLVIHNLTRLIQLVRLYRILDAEDREALLNWLFAQF | not soluble
